Assay results taken from patent publication US20180079802A1 (VANDERBILT UNIVERSITY, published 2018).
Where a chain is given by its changes, count along the chain named.

What was measured:
[1] = target: CHIKV p62-E1 (Chikungunya virus); assay: SPR (Biacore T100), IgG captured by anti-human IgG, p62-E1 injected
[2] = target: CHIKV strain RSU1 (Asian genotype) (Chikungunya virus strain RSU1); assay: cell-based or functional assay
[3] = target: CHIKV strain LR2006 OPY1 (LR) (ECSA genotype) (Chikungunya virus strain LR2006 OPY1); assay: cell-based or functional assay
[4] = target: CHIKV strain NI 64 IbH 35 (West African genotype) (Chikungunya virus strain NI 64 IbH 35); assay: cell-based or functional assay
[5] = target: CHIKV strain 99659 (Asian genotype, 2014 Caribbean) (Chikungunya virus strain 99659); assay: cell-based or functional assay

B1: 2D12 (antibody, V domains shown)
VH: QVQLVQSGAEVKKPGASVKVSCKASGYSFNIYGISWVRQAPGQGLEWMGWISAYNGNTNYAQKLQGRVTMTTDTSTSTAYMELRSLRSDDTAVYYCARPLWGEFYYDIWGQGTLVTVSS
VL: QAVVTQSPGTLSLSPGERATLSCRASQSVSSGYSAWYQQKPGQAPRLLIYGASKRAAGIPDRFSGSGSGTDFTLTISRLEPEDFAVYYCQLFATSPPPFGQGTRLEIK
Binder B1 has a Kd [1] of 0.49 nM, a koff [1] of about 0.00086 s⁻¹ and a kon [1] of 1.75e+06 M⁻¹ s⁻¹. For the same binder, the “t1/2” value [1] was 13 min.

B2: 4N12 (antibody, V domains shown)
VH: QVQLVQSGAEVKKPGASVKVSCKVSGYILSKLSVHWVRQAPGKGLEWMGGSEREDGETVYAQKFQGRISLTEDTSIETAYMELSSLSSEDTAVYYCATGGFWSMIGGNGVDYWGQGTLVTVSS
VL: QAVVTQSPSSLPASVGDRVTITCRASQDIRNNLGWYQQKPGKAPERLIYGTSNLQSGVPSRFSGSGSGTEFTLTISSLQPEDFATYYCLQHNSYPPTFGRGTKVEIK
For B2, the Kd [1] was 0.95 nM, the koff [1] was 0.000118 s⁻¹ and the kon [1] was 124000 M⁻¹ s⁻¹. The “t1/2” value [1] was 98 min.

B3: 5O14 (antibody, V domains shown)
VH: QVQLVQSGGRVVQAGRSLRLSCAASGFTFSMYGVHWVRQAPGKGLEWVAVIWNDGSKEYYGDSVKGRFTISRDNSRNTLYLQMNSLRVDDTAVYFCARDGIPDPERGDYGGLDYWGQGTLVTVSS
VL: QTVVTQFPSSPFASVGDGVTITCRARQSISSYVNWYQQKPGKAPKLLIYATSSLQSGVPSRFSGSGYGTDFTLTISGLQPEDFATYYCQQSYSFPRTFGQGTKVEIK
With B3 the Kd [1] was 1.15 nM, the koff [1] was 0.000911 s⁻¹ and the kon [1] was 790000 M⁻¹ s⁻¹. The “t1/2” value [1] was 13 min, the “Neutralization (FRNT), EC50” value [2] was 17.3 ng/mL and the “Neutralization (FRNT), EC50” value [3] was 12.1 ng/mL. For the same binder, the “Neutralization (FRNT), EC50” value [4] was 6.7 ng/mL and the “Neutralization (FRNT), EC50” value [5] was 6.2 ng/mL.

B4: 1L1 (antibody, V domains shown)
VH: QVQLVQSGPTLVKPTQTLTLTCTFSGFSLSISGVGVGWIRQPPGKALEWLALIYWDDDKRYSPSLKSRLTITKDTSENQVVLTMTNMDPVDTATYYCAHSMTKGGAIYGQAYFEYWGQGTLV
VL: PSPALEPDSDVGGYNYVSWYQQHPGKAPKLIIYDVTDRPSGVSNRFSASKSANTASLTISGLQAEDEADYYCSSYTSSST
With B4 the Kd [1] was 3.79 nM, the koff [1] was 0.000273 s⁻¹ and the kon [1] was 88000 M⁻¹ s⁻¹. The “t1/2” value [1] was 42 min.

B5: 3A2 (antibody, V domains shown)
VH: QVQLVQSGGGVVQPGRSLRLSCAASGFTFSNYVMEWVRQAPGKGLEWVAVISYDGSNKYYADSVKGRFTISRDNSKNTLYLQMNSLRAEDTAVYYCARSEWESSYGSGNYYTDYFYYYAMDVWGPGTLVTVSS
VL: QAVVTQSPLSLPVTPGEPASISCRSNQSLLRGIRYNYLDWYLQKPGQSPQLLIYLGSNRASGVPDRFSGSGSATDFTLKISRVEAEDVGVYYCMQALQTPTTFGQGTRLEIK
B5 showed a Kd [1] of 4.78 nM, a koff [1] of 0.00101 s⁻¹ and a kon [1] of 212000 M⁻¹ s⁻¹. For the same binder, the “t1/2” value [1] was 11 min.

B6: 4J14 (antibody, V domains shown)
VH: QVQLVQSGAEVKKPGSSVKVSCKASGGTSSTYAISWVRQAPGQGLEWMGGSIPVFATVNYAQKFQGRLTITADESTSTVYMELSSLRSEDTAVYFCASPYCSSMNCYTTFYYFDFWGQGTLVTVSS
VL: QAVVTQPASVFGFPGQSITISCTGTSSDFGTYNYVSWYQQHPGQAPKLMIFDVSNRPSGVSNRFSGSKSGNTASLTISGLQAEDEASYYCSSYTSGSTLYGGGTKLTVL
In the case of B6, the Kd [1] is reported as 9.94 nM, the koff [1] is reported as 0.00153 s⁻¹ and the kon [1] is reported as 161000 M⁻¹ s⁻¹. The “t1/2” value [1] was 8 min.

B7: 3E23 (antibody, V domains shown)
VH: QVQLVQSGPGLVKPSDTLSLTCSVSSDALRSRSYYWGWVRQPPGKGLEWIGTVSYSGGTYYNPSLQSRVTVSVDTSKNHFSLRLNSVTAADAAVYYCARSYFYDGSGYYYLSYFDSWGQGTLVTVSS
VL: QAVVTQEPSLTVSPGGTVTLTCASSTGAVTSGHYPNWFQQKPGQPPRALIYSTDNKHSWTPARFSGSLLGVKAALTLSDVQPEDEADYYCLLHFGGVVVFGGGTKLTVL
In the case of B7, the koff [1] is reported as 0.000267 s⁻¹ and the “t1/2” value [1] is reported as 43 min.

B8: 8G18 (antibody, V domains shown)
VH: QVQLVQSGAQVKKPGSSVKVSCKPSGGTFNNNGISWVRQAPGQGLEWMGGIVPNFGTPTYGQDFQGRVTITADESTSTVFLELTRLRSDDTAVYFCARGRTAVTPMQLGLQFYFDFWGRGTLVTVSS
VL: QTVVTQEPSLTVSPGGTVTLTCSANSGAVTSDYYPNWFQQKPGQAPRALIYSASNKFSWTPARFSGSLLGGKAALTLSGAQPEDEAEYYCLVYSGDGVVFGGGTKLTV
B8 was tested, and the Kd [1] was 0.48 nM, the koff [1] was 0.000188 s⁻¹ and the kon [1] was 390000 M⁻¹ s⁻¹. The “t1/2” value [1] was 62 min.

B9: 2B4 (antibody, V domains shown)
VH: QVQLVQSGSELKKPGASVKVSCKASGYSFTSYSINWVRQAPGQGPEWMGWIDTNTGNPTYAQDFAGRFVFSLDTSVTTAYLQISSLKAGDTAVYYCATYYVDLWGSYRQDYYGMDVWGH
VL: QSVLTQPPSASGTPGQRVTISCSGGSSNIGSNPVNWYQMVPGTAPKLLLYTNNQRPSGVPDRFSGSKSGTSASLAINGLQSEDEADYYCAVWDDSLSGRWVFGGGTKVTVL
With B9 the “Neutralization (FRNT), EC50” value [2] was 6.5 ng/mL, the “Neutralization (FRNT), EC50” value [3] was 5.6 ng/mL and the “Neutralization (FRNT), EC50” value [4] was 3.2 ng/mL. The “Neutralization (FRNT), EC50” value [5] was 7 ng/mL.

B10: 4J21 (antibody, V domains shown)
VH: QVQLVQSGSELKKPGASVKVSCKASGYSFTSYSINWVRQAPGQGPEWMGWIDTNTGNPTYAQDFAGRFVFSLDTSVTTAYLQISSLKAGDTAVYYCATYYVDLWGSYRQDYYGMDVWGHGTLVTVSS
VL: B9 VL with L4V, A10V, R17G, V108L
Work on B10 yielded a Kd [1] of 0.54 nM, a koff [1] of 6.2e-05 s⁻¹ and a kon [1] of 119000 M⁻¹ s⁻¹. For the same binder, the “t1/2” value [1] was 186 min, the “Neutralization (FRNT), EC50” value [2] was 7.7 ng/mL and the “Neutralization (FRNT), EC50” value [3] was 7.4 ng/mL. For the same binder, the “Neutralization (FRNT), EC50” value [4] was 5.2 ng/mL and the “Neutralization (FRNT), EC50” value [5] was 7.2 ng/mL.

B11: 2C2 (antibody, V domains shown)
VH: QVQLVQSGGGLVQPGRSLTLSCAASGFTFDVYAMHWVRQAPGKGLEWVAGISWNSGSVGYADSMKGRFTISRDNAKNSLYLQINSLRAEDTALYYCAKAFWFGELSGYGMDVWGQGTLVTVSS
VL: QAVVTQPPSASGFPGQSVTISCTGTSSDVGSYNYVSWYQQHPGKAPKLIIYAVTRRPSGVPERFSGSKSGNTASLTVSGLQAEDEADYYCTSYAGNNKDVFGTGTKVTVL
B11 was tested, and the Kd [1] was 4.59 nM, the koff [1] was 0.000608 s⁻¹ and the kon [1] was 154000 M⁻¹ s⁻¹. For the same binder, the “t1/2” value [1] was 19 min, the “Neutralization (FRNT), EC50” value [2] was over 10000 ng/mL and the “Neutralization (FRNT), EC50” value [3] was over 10000 ng/mL. The “Neutralization (FRNT), EC50” value [4] was over 10000 ng/mL.

B12: 3B4 (antibody, V domains shown)
VH: QVQLEESGPTLVKPTQTLTLTCSFSGFSLTTTGVTVGWIRQPPGKALEWLALIYWDDDKRYSPSLKSRLTITKDTSKNQVVLTMTNMDPVDTATYYCAHSTGYYDSSGYRGALDAFAVWGQGTLVTVSS
VL: QIVVTQFPDSPAVSLGERATINCKSSQSVLYHSNNKNYLAWYQQKPGQPPNLLIYWASARQSGVPDRFSGSGSGTDFTLTISSLQAEDVAVYYCQQYYSTPYTFGQGTKLEIK
With B12 the Kd [1] was 0.54 nM, the koff [1] was 0.000156 s⁻¹ and the kon [1] was 291000 M⁻¹ s⁻¹. The “t1/2” value [1] was 74 min.
